Article PMC7293229

Legend:
SxtT = test: crystal structure; SxtT crystallised anaerobically, hanging drop, 2.0 M (NH4)2SO4, 0.1 M Bis-Tris pH 6.5, 10% glycerol, 20 °C; without and with 20 mM ddSTX; three molecules in the asymmetric unit
GxtA = test: crystal structure; GxtA crystallised anaerobically, hanging drop, 0.3 M MgCl2, 0.1 M Bis-Tris pH 5.5, 25% PEG3350, 15% glycerol, 20 °C; without and with 20 mM ddSTX; three molecules in the asymmetric unit

| Substance | stoichiometry N (SxtT) | stoichiometry N (GxtA) |
| --- | --- | --- |
| SxtT (enzyme) | 3 | – |
| GxtA (enzyme) | – | 3 |
